Test results published in patent publication US20130150294A1.

How the values were obtained:
EYFP-rat α1 (rat) = EYFP-rat α1 (rat) (UniProt P06685); assay: FRET by acceptor photobleaching, 16 LLC-PK1 cells in six experiments
[1] = target: EYFP-rat α1 mutant (D371E) (rat) (UniProt P06685); assay: FRET by acceptor photobleaching, 20 TCN23-19 cells in three experiments

**Q.** With Src-ECFP as the substance, how does the FRET efficiency (EYFP-rat α1 (rat)) read?
**A.** Its FRET efficiency is 8.1 to 18.8.

**Q.** What about the FRET efficiency (mean) (EYFP-rat α1 (rat)) of the same substance?
**A.** Its FRET efficiency (mean) is 13.2.

**Q.** And the FRET efficiency [1]?
**A.** The FRET efficiency was 10.4 to 15.6.

**Q.** And the FRET efficiency (mean) [1]?
**A.** The FRET efficiency (mean) was 13.2.
